Ends that are not written are not given here.

Sequences and labels used below:
B1: human β-CGRP (1-37) (peptide)
peptide: ACNTATCVTHRLAGLLSRSGGMVKSNFVPTNVGSKAF-NH2
modifications: cysteine pairing not given here
notes: also called human β (1-37); 1-37 of β-CGRP (WT)
B2: human α-CGRP 1-36-COOH (peptide)
peptide: ACDTATCVTHRLAGLLSRSGGVVKNNFVPTNVGSKA-OH
modifications: ends and bridges not checked
notes: not C-terminally amidated; also called 1-36 (not amidated at the C-terminus)

T1 sequence (VH, as listed by the source, chain 1 of 2): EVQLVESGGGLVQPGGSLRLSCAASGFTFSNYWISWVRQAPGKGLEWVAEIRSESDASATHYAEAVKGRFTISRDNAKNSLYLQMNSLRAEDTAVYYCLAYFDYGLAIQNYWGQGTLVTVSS
T1 sequence (VL, as listed by the source, chain 2 of 2): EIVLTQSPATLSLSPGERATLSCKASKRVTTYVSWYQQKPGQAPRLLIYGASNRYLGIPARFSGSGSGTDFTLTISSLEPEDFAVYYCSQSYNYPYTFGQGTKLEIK

This assay has as its target T1, antibody G1 Fab fragment.
T1 construct: Fab expressed in E. coli; purified on Ni-NTA, tag not described
In words: Biacore competition: 10 µM peptide with 50 nM G1 Fab over human α-CGRP chip. From the text:
Y axis represents percentage of binding blocked by the presence of the competing peptide compared with the binding in the absence of the competing peptide.
All these peptides are amidated at the C-terminus.
A general note: SPR reads the build-up and loss of mass on a sensor chip optically.
As for VTHRLAGLLSRSGGVVKNNFVPTNVGSKAF-NH2 [human α-CGRP 8-37], the “percentage of binding blocked” value is 100%.
With NFVPTNVGSKAF-NH2 [human α-CGRP 26-37] the figure was 100%; with ACDTATCVTHRLAGLLSRSGGVVKNNFVPTNVGSKAF-NH2 (cysteine pairing not given here, also called full length human α-CGRP) [human α-CGRP 1-37 (WT)], 100%; with SCNTATCVTHRLAGLLSRSGGVVKDNFVPTNVGSKAF-NH2 (cysteine pairing not given here, also called rat β (1-37)) [rat β-CGRP (1-37)], 100%.
Take B1: the “percentage of binding blocked” value was 100%.
In the case of B2, the “percentage of binding blocked” value was approximately 40%.

The record behind these values is patent US20180111984A1 (Teva, published 2018).
